The values below come from the supplement of paper PMC5998384.

For data set [1], the system named is HeLa Kyoto. The data set is described as follows: solubility in G1/S (NP-40 vs SDS abundance) (log2 ratio); higher = more soluble. The settings on record: cell cycle stage: G1/S.
The test system of data set [2] is HeLa Kyoto. Put plainly: melting temperature (median over replicates), in situ; higher = more thermally stable.
Data set [3] deals with HeLa Kyoto. Put plainly: thermal stability score vs G1/S (z-score of summed log2 fold changes over temperatures); higher = more thermally stable than in G1/S.
Data set [4] concerns HeLa Kyoto. Put plainly: solubility change mitosis vs G1/S (difference of NP-40 vs SDS log2 ratios) (log2 ratio difference); higher = more soluble in mitosis.
The mark [5] stands for this setting: cell cycle stage: early G1 (4.5 h after nocodazole release).
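Throughout, for melting temperature (median over replicates), in situ: HeLa Kyoto cells synchronized by double thymidine or nocodazole block, proteins quantified by TMT10plex mass spectrometry, three independent biological replicates.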
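Throughout, for solubility change mitosis vs G1/S (difference of NP-40 vs SDS log2 ratios): synchronized HeLa Kyoto cells (double thymidine block for G1/S, nocodazole release for mitosis), protein amounts in NP-40 versus SDS lysates quantified by mass spectrometry, three biological replicates.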
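Throughout, for solubility in G1/S (NP-40 vs SDS abundance): HeLa Kyoto cells arrested at G1/S by double thymidine block, proteins quantified by TMT10plex mass spectrometry in mild NP-40 versus SDS extracts, three biological replicates.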
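Throughout, for thermal stability score vs G1/S (z-score of summed log2 fold changes over temperatures): synchronized HeLa Kyoto cells, proteins quantified by TMT10plex mass spectrometry, three biological replicates, mitosis taken 0.5 h after nocodazole release, G1/S directly after double thymidine block.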

For the sequence “MAENGDNEKMAALEAKICHQIEYYFGDFNLPRDKFLKEQIKLDEGWVPLEIMIKFNRLNRLTTDFNVIVEALSKSKAELMEISEDKTKIRRSPSKPLPEVTDEYKNDVKNRSVYIKGFPTDATLDDIKEWLEDKGQVLNIQMRRTLHKAFKGSIFVVFDSIESAKKFVETPGQKYKETDLLILFKDDYFAKKNEERKQNKVEAKLRAKQEQEAKQKLEEDAEMKSLEEKIGCLLKFSGDLDDQTCREDLHILFSNHGEIKWIDFVRGAKEGIILFKEKAKEALGKAKDANNGNLQLRNKEVTWEVLEGEVEKEALKKIIEDQQESLNKWKSKGRRFKGKGKGNKAAQPGSGKGKVQFQGKKTKFASDDEHDEHDENGATGPVKRAREETDKEEPASKQQKTENGAGDQ [SSB]”, the “solubility in G1/S (log2)” value in data set [1] was 0.66. Moreover, the melting temperature stood at 49.3 °C in data set [2] (cell cycle stage: G1/S) and 50.3 °C in data set [2] (cell cycle stage: mitosis). The thermal stability score in data set [3] (setting [5]) amounted to 2.85; in data set [3] (cell cycle stage: mitosis), 0.442. In addition, in data set [4], the “solubility change mitosis (log2)” value is -0.0733.

Take “MAENKGGGEAESGGGGSGSAPVTAGAAGPAAQEAEPPLTAVLVEEEEEEGGRAGAEGGAAGPDDGGVAAASSGSAQAASSPAASVGTGVAGGAVSTPAPAPASAPAPGPSAGPPPGPPASLLDTCAVCQQSLQSRREAEPKLLPCLHSFCLRCLPEPERQLSVPIPGGSNGDIQQVGVIRCPVCRQECRQIDLVDNYFVKDTSEAPSSSDEKSEQVCTSCEDNASAVGFCVECGEWLCKTCIEAHQRVKFTKDHLIRKKEDVSESVGASGQRPVFCPVHKQEQLKLFCETCDRLTCRDCQLLEHKEHRYQFLEEAFQNQKGAIENLLAKLLEKKNYVHFAATQVQNRIKEVNETNKRVEQEIKVAIFTLINEINKKGKSLLQQLENVTKERQMKLLQQQNDITGLSRQVKHVMNFTNWAIASGSSTALLYSKRLITFQLRHILKARCDPVPAANGAIRFHCDPTFWAKNVVNLGNLVIESKPAPGYTPNVVVGQVPPGTNHISKTPGQINLAQLRLQHMQQQVYAQKHQQLQQMRMQQPPAPVPTTTTTTQQHPRQAAPQMLQQQPPRLISVQTMQRGNMNCGAFQAHQMRLAQNAARIPGIPRHSGPQYSMMQPHLQRQHSNPGHAGPFPVVSVHNTTINPTSPTTATMANANRGPTSPSVTAIELIPSVTNPENLPSLPDIPPIQLEDAGSSSLDNLLSRYISGSHLPPQPTSTMNPSPGPSALSPGSSGLSNSHTPVRPPSTSSTGSRGSCGSSGRTAEKTSLSFKSDQVKVKQEPGTEDEICSFSGGVKQEKTEDGRRSACMLSSPESSLTPPLSTNLHLESELDALASLENHVKIEPADMNESCKQSGLSSLVNGKSPIRSLMHRSARIGGDGNNKDDDPNEDWCAVCQNGGDLLCCEKCPKVFHLTCHVPTLLSFPSGDWICTFCRDIGKPEVEYDCDNLQHSKKGKTAQGLSPVDQRKCERLLLYLYCHELSIEFQEPVPASIPNYYKIIKKPMDLSTVKKKLQKKHSQHYQIPDDFVADVRLIFKNCERFNEMMKVVQVYADTQEINLKADSEVAQAGKAVALYFEDKLTEIYSDRTFAPLPEFEQEEDDGEVTEDSDEDFIQPRRKRLKSDERPVHIK [TRIM33]”: the “solubility in G1/S (log2)” value in data set [1] came to 0.105. The melting temperature in data set [2] (cell cycle stage: G1/S) was found to be 48.1 °C; in data set [2] (cell cycle stage: mitosis), 49.7 °C. Besides, the thermal stability score turned out to be 2.02 in data set [3] (setting [5]) and 4.15 in data set [3] (cell cycle stage: mitosis). Further, the “solubility change mitosis (log2)” value in data set [4] was -0.201.

Take “MAENPSLENHRIKSFKNKGRDVETMRRHRNEVTVELRKNKRDEHLLKKRNVPQEESLEDSDVDADFKAQNVTLEAILQNATSDNPVVQLSAVQAARKLLSSDRNPPIDDLIKSGILPILVKCLERDDNPSLQFEAAWALTNIASGTSAQTQAVVQSNAVPLFLRLLRSPHQNVCEQAVWALGNIIGDGPQCRDYVISLGVVKPLLSFISPSIPITFLRNVTWVIVNLCRNKDPPPPMETVQEILPALCVLIYHTDINILVDTVWALSYLTDGGNEQIQMVIDSGVVPFLVPLLSHQEVKVQTAALRAVGNIVTGTDEQTQVVLNCDVLSHFPNLLSHPKEKINKEAVWFLSNITAGNQQQVQAVIDAGLIPMIIHQLAKGDFGTQKEAAWAISNLTISGRKDQVEYLVQQNVIPPFCNLLSVKDSQVVQVVLDGLKNILIMAGDEASTIAEIIEECGGLEKIEVLQQHENEDIYKLAFEIIDQYFSGDDIDEDPCLIPEATQGGTYNFDPTANLQTKEFNF [KPNA3]”: the “solubility in G1/S (log2)” value in data set [1] came to 0.128. Also, the melting temperature worked out at 49 °C in data set [2] (cell cycle stage: G1/S) and 50.5 °C in data set [2] (cell cycle stage: mitosis). Besides, the thermal stability score in data set [3] (setting [5]) worked out at 1.67; in data set [3] (cell cycle stage: mitosis), 4.62. In addition, the “solubility change mitosis (log2)” value in data set [4] was -0.0814.

As to “MAEPLQPDPGAAEDAAAQAVETPGWKAPEDAGPQPGSYEIRHYGPAKWVSTSVESMDWDSAIQTGFTKLNSYIQGKNEKEMKIKMTAPVTSYVEPGSGPFSESTITISLYIPSEQQFDPPRPLESDVFIEDRAEMTVFVRSFDGFSSAQKNQEQLLTLASILREDGKVFDEKVYYTAGYNSPVKLLNRNNEVWLIQKNEPTKENE [HEBP2]”, the “solubility in G1/S (log2)” value in data set [1] was 0.297. Also, the melting temperature in data set [2] (cell cycle stage: G1/S) was 53.1 °C; in data set [2] (cell cycle stage: mitosis), 53.6 °C. The thermal stability score was 0.153 in data set [3] (setting [5]) and -0.49 in data set [3] (cell cycle stage: mitosis). Further, the “solubility change mitosis (log2)” value in data set [4] is -0.0442.

Turning to “MAEPQPPSGGLTDEAALSCCSDADPSTKDFLLQQTMLRVKDPKKSLDFYTRVLGMTLIQKCDFPIMKFSLYFLAYEDKNDIPKEKDEKIAWALSRKATLELTHNWGTEDDETQSYHNGNSDPRGFGHIGIAVPDVYSACKRFEELGVKFVKKPDDGKMKGLAFIQDPDGYWIEILNPNKMATLM [GLO1]”, the “solubility in G1/S (log2)” value in data set [1] worked out at 0.117. The melting temperature in data set [2] (cell cycle stage: G1/S) was 55.8 °C; in data set [2] (cell cycle stage: mitosis), 54.5 °C. For the same sequence, the thermal stability score was -0.959 in data set [3] (setting [5]) and -4.08 in data set [3] (cell cycle stage: mitosis). Besides, in data set [4], the “solubility change mitosis (log2)” value was found to be 0.168.
